Experimental data: publication PMC12397386, “Structural basis of Fusobacterium nucleatum adhesin Fap2 interaction with receptors on cancer and immune cells” (Nature Communications, 2025)

Key:
[1] = target: hTIGIT-ECD-Fc (human TIGIT extracellular domain with C-terminal Fc tag, Acro Biosystems #TIT-H5254) (human) (UniProt Q495A1); assay: SPR; Biacore 3000; hTIGIT-ECD-Fc immobilised on CM5 chip (3220 RU); Fap2-ECD injected at 52.5 to 368 nM; 25 mM HEPES-NaOH pH 7.5, 50 mM NaCl, 0.005% Tween-20; 25 °C; global 1:1 Langmuir fit
[2] = target: TIGIT (Homo sapiens) (UniProt Q495A1); conditions: cited from earlier work
[3] = target: fibronectin (Homo sapiens) (UniProt P02751); conditions: cited from earlier work
fibronectin (Homo sapiens), sequence (P02751 32-2477): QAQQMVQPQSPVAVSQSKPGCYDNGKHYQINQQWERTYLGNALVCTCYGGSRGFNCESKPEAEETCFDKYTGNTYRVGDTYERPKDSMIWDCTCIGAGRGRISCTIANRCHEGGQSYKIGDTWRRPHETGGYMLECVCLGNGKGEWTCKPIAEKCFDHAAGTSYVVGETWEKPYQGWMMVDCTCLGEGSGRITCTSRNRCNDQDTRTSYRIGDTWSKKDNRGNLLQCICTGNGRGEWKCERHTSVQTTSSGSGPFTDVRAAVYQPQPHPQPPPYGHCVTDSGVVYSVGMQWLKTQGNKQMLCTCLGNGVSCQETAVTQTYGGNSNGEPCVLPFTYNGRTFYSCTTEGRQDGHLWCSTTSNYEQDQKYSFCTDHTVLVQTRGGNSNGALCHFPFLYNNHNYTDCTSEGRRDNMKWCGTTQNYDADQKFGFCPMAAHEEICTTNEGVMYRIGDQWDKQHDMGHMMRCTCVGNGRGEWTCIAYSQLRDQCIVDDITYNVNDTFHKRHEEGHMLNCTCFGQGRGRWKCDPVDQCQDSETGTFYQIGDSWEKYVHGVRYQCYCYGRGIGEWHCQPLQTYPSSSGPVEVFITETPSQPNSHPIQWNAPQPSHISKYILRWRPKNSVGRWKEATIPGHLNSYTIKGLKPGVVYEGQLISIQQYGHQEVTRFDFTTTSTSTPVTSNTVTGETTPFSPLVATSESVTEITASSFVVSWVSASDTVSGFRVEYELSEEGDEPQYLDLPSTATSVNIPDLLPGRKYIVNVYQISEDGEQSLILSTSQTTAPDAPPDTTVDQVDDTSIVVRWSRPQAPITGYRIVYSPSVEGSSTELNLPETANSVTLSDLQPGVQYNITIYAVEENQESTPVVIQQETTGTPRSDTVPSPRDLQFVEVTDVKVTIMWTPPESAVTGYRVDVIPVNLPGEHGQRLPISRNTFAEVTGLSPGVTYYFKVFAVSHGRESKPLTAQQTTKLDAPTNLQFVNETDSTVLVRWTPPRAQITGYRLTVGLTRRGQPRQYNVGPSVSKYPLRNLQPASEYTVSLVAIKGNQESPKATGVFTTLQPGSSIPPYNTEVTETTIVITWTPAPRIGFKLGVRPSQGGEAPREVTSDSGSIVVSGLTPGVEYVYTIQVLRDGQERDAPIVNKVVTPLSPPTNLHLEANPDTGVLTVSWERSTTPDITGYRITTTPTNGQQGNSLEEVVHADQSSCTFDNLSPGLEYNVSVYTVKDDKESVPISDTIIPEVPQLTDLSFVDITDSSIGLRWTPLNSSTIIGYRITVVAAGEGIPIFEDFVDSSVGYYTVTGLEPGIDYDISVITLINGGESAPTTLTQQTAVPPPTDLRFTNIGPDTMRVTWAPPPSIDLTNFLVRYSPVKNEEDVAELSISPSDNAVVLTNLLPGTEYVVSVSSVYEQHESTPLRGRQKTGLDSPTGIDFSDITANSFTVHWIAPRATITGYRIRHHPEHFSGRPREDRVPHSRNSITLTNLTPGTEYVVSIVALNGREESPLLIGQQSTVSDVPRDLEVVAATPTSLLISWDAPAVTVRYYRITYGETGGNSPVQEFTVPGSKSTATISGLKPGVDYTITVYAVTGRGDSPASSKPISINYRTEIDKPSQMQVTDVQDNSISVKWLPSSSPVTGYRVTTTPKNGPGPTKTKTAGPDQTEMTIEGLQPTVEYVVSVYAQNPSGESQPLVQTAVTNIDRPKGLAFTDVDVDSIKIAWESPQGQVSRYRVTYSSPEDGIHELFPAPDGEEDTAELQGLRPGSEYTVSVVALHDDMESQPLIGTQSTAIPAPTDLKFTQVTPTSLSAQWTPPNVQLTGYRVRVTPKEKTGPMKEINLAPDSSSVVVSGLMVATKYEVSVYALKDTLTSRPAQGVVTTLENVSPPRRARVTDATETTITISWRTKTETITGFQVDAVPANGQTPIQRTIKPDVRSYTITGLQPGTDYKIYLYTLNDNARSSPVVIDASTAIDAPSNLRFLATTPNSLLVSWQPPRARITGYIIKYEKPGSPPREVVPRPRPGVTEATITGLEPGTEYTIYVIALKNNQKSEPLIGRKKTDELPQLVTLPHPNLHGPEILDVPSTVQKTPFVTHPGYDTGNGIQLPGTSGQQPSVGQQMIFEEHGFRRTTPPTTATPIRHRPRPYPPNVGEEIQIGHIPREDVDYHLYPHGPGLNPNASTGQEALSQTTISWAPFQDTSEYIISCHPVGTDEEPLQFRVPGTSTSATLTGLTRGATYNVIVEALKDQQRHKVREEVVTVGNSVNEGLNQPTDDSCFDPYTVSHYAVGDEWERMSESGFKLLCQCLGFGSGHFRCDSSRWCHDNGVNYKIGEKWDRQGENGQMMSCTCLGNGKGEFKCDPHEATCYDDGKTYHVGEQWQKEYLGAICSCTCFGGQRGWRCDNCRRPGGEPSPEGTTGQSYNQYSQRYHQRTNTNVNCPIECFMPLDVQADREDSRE

[4] = target: T1, Fap2 extracellular domain (Fap2-ECD), residues 42-3271, purified after release from the AIDA autotransporter (Fusobacterium nucleatum subsp. …, UniProt A0ABV3Y820 42-3271); assay: SPR; Biacore 3000; hTIGIT-ECD-Fc amine-coupled to a CM5 chip (3220 RU); Fap2-ECD injected at 52.5-368 nM; 25 mM HEPES-NaOH pH 7.5, 50 mM NaCl, 0.005% Tween-20; 25 °C; 1:1 Langmuir global fit; conditions: both partners purified
T1 construct: Linker GSA before and SAG after the His8 tag; what is left of the TEV site after cleavage follows it; Gene codon-optimised for E. coli; also called Fap2 WT; recombinant Fap2-ECD; not shown: His8, C-terminal, kept

Molecule: Fap2 extracellular domain (Fap2-ECD, residues 42-3271) from Fusobacterium nucleatum subsp. nucleatum ATCC23726, wild type (domain or fragment)
- Ka [1]: 1.72e+06 M⁻¹
- Kd [1]: 583 nM
- koff [1]: 0.0308 s⁻¹

Molecule: Nectin-2 (from UniProt Q92692)
- Kd [2]: 6000 nM

Molecule: lipoprotein P4 (from UniProt P26093)
- Kd [3]: 10 nM

B1: human TIGIT extracellular domain with C-terminal Fc tag (Acro Biosystems #TIT-H5254) (Fc fusion, UniProt Q495A1 22-141, looked up)
chain: MMTGTIETTGNISAEKGGSIILQCHLSSTTAQVTQVNWEQQDQLLAICNADLGWHISPSFKDRVAPGPGLGLTLQSLTVNDTGEYFCIYHTYPDGTYTGRIFLEVLESSVAEHGARFQIP
notes: TIGIT, human, extracellular domain; The text calls it glycosylated hTIGIT-ECD in the SPR; also called hTIGIT-ECD-Fc; hTIGIT-Fc; source: bought: Acro Biosystems, #TIT-H5254; not shown: Fc, C-terminal, kept
- Kd [4]: ~600 nM
- koff [4]: 0.03 ± 0.001 s⁻¹
